Data on 1 molecule can be found in CN117050178A (BEIJING BIOSYSTEMS BIOLOGICAL TECH CO LTD, dated 2023).

One assay has as its target 人源GM-CSF蛋白 (human, UniProt P04141 18-144). In words: indirect ELISA, cell supernatant on coated cytokine.
The next assay addresses 人源TNF-alpha蛋白 (human, UniProt P01375 77-233). The description is as above.
For another assay, the target named is 人源IL-2蛋白 (human, UniProt P60568 21-153). Described as above.
The next assay deals with T1, 人源IL-4蛋白 (human, UniProt P05112 25-153).
T1 sequence (looked up): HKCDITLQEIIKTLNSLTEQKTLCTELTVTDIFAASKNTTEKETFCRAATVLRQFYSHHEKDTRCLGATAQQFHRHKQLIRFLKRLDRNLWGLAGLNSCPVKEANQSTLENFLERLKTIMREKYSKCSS
The description is as above.

The target of another assay is 人源IL-6蛋白 (human, UniProt P05231 30-212). The assay is described as above.
The next assay has as its target 人源IL-10蛋白 (human, UniProt P22301 19-178). The assay is described as above.
Another assay deals with 人源IL-15蛋白 (human, UniProt P40933 49-162). The description is as above.
Sequence of 人源IL-15蛋白 (P40933 49-162 limits assumed): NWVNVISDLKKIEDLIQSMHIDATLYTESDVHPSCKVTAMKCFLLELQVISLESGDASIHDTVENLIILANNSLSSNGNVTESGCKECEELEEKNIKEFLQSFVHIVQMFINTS
In the next assay the target is 人源IL-21蛋白 (human, UniProt Q9HBE4 32-162, limits assumed). The description is as above.
Sequence of 人源IL-21蛋白 (Q9HBE4 32-162 limits assumed): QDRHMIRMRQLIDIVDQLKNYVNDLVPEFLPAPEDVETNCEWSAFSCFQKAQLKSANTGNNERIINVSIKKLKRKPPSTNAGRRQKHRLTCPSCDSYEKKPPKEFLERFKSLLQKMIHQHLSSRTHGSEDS
The target in a further assay is T2, 人IL-7蛋白 (human, UniProt P13232 26-177).
T2 construct: also called 人源IL-7
T2 sequence (looked up): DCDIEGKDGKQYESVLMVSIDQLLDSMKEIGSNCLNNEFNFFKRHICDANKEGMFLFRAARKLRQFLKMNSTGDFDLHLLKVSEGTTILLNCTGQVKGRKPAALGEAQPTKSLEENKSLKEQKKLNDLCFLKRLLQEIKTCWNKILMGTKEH
In words: indirect ELISA, cell supernatant on coated human IL-7 (2 μg/mL).

Sequence of 人源IL-2蛋白 (P60568 21-153 limits assumed): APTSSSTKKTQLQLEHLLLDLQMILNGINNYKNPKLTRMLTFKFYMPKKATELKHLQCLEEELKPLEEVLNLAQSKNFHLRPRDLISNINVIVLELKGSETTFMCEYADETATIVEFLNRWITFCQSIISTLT
Sequence of 人源GM-CSF蛋白 (P04141 18-144 limits assumed): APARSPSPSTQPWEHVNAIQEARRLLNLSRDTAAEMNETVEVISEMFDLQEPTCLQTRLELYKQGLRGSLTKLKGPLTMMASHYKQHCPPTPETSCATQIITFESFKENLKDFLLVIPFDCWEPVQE
Sequence of 人源TNF-alpha蛋白 (P01375 77-233 limits assumed): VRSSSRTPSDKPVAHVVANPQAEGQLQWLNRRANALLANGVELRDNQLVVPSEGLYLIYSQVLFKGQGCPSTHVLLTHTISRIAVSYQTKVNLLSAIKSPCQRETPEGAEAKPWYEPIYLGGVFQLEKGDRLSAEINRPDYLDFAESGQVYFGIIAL
Sequence of 人源IL-10蛋白 (P22301 19-178 limits assumed): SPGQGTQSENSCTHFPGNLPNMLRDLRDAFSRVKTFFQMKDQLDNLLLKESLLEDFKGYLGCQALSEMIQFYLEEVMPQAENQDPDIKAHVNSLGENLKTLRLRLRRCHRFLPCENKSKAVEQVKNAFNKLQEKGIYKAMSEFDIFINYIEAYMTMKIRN

B1: 抗体8E8B10 (antibody, V domains shown)
VH: QVQLQQPGAELLRPGASVKLSCKTSGFTFTRYWINWVKQRPGQGLEWIGMIDPFDSETHYNQVFKDKATLTVDKSSSTAYMYMSSLTSEDSAVYYCARYFVYFDTVDFWGQGTSLTVSS
VL: DVVMTQTPLSLPVSLGGQASISCRSGQSLVHSDGNTYLHWYLQRPGQSPKLLIYKVSNRFSGVPDRFSGSGSGTNFTLKISRVEAEDLGVYFCSQNTHVPYTFGGGTKLEMK
notes: Mouse hybridoma monoclonal antibody; also called Clone 8E8B10; 克隆号8E8B10
Turning to B1, the binding result in the assay with 人源GM-CSF蛋白, in the assay with 人源TNF-alpha蛋白, with 人源IL-2蛋白, with 人源IL-4蛋白, with 人源IL-6蛋白 and in the assay with 人源IL-10蛋白 was “no binding (tested: antigen coated at 2 μg/mL)” each time. The binding result is “no binding (tested: antigen coated at 2 μg/mL)” in the assay with 人源IL-15蛋白, “no binding (tested: antigen coated at 2 μg/mL)” with 人源IL-21蛋白 and “binds” in the assay with 人IL-7蛋白.
